Assay: yeast display, Sf9 membrane polyspecificity reagent, FACS + sequencing; frameworks hold sequencing errors
Procedure, shortened: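 Sorting gates, low and high (top ~1%), were placed on anti-HA fluorescence to track expression and on streptavidin fluorescence to track reagent binding. A clone's polyreactivity label is taken from the gate it came out of. The reagent was 10% biotinylated, detergent-solubilized Sf9 membrane, applied for 1 hour at 4 °C to galactose-induced yeast display cells.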

| Sequence | polyreactivity (PSR sort gate) |
| --- | --- |
| QVQREESGGGLVQAGGSLRLSCAASGFTFRYYAMGRYRQAPGKERELVAAITWSGGSTYYADSVKGRFTISRDNAKNTVYLQLNSLKPEDTAVYYCNVEAVAWWPEEDYWGQGTQVTVSS | high polyreactivity |
| QVQREESGGGLVQAGGSLRLSCAASGLTFTTYAMGWYRQAPGKERELVAAISRRGSRTYYADSVKGRFTISRDNAKNTVYLQMNSLKPEDTAVYYCNALTGSFKTYSFDYWGQGSQVTVSS | high polyreactivity |
| QVQRVDSGGGIVQAGGSLRLSCADSGSIFNRYAMGWYRQAPGKERELFAAISSSSGSTYYADSVKGRFTISRDNSKNTVYLQMNSLKPEDTAVYYCATRRKVVPTQVGYYYRGGVDYWGQGTQVTVSS | high polyreactivity |
| QVQRVDSGGGLVQAGGSLRLSCAASGSTFPGYAMGWYRQAPGKERELVAAISKRGGSTRYADSVKGRFTISRDNAKNTVYLQMNSLKPEDTAVYYCAASYSYSGSGGGYWGQVTQVTVSS | high polyreactivity |
| QVQRVESGGDLVQAGGSLRLSCAASGFIYTYYAMGWYRLAPGKERDFVATINWSDGSTRYADSVKGRFTISRDNAKNTVYLQMNSLKPEDTAVYYCAKDWFNRPSGEMDYCGQGTQVTVSS | low polyreactivity |
| QVQRVESGGGLGQAGGSLRLSCAASGIIFDYYAMGWYRQAPGNERELVAAITTSGGRTYYADSVKGRFTISRDNEKNTVYLQMNRLKPEDTAVYYCAASRPSPRPRDGYWGQGTQVTVSS | high polyreactivity |
| QVQRVESGGGLVLAGGSLRLSSAASGITFVRYAMGGYRQAPVKERELVAVISRGGITNYADSVMGRFTISRDNAKNTVYLQMNSLKPEDTAVYYCAVRARSYVRTYDYWGQGTQVTVSS | high polyreactivity |
| QVQRVESGGGLVQAGCSLRLSCAATGSTFRDYTMGGYRQEPGKERELVADITWRSGRTYYADSVMGRFTISRDYAMNTVYLQMNSLKPEDTAVYYCAAATRVKVNGLYSYYYRYDYWGLGTQVTVSS | high polyreactivity |
| QVQRVESGGGLVQAGGRLLLSCAASGSIFPPNAMGWYREAPGKERELVAAISGSGRTYYADSVKGRFTISRDNAKNTVYLQMNSLKPEDTAVYYCAARQQRRPTTRDFGFWGQGTQVTVSS | high polyreactivity |
| QVQRVESGGGLVQAGGRLRLSCAASGRIFIYYAMGWYRQAPGKERELVAAISSSGASTYYADSVKGRFTISRDNAKNTVYLQMISLKPEDTAVYYCAALYYRGGAFPLDYWGQGTQVTVSS | low polyreactivity |
| QVQRVESGGGLVQAGGRLRLSCAASGSTFRQYAMGWYRQAPGKERELVAAITGGGGSTYYADSVKGRFTISRDNAKNTVYLQMNSLKPEDTAVYYCNAVHRYERDYWGQGTQVTVSS | high polyreactivity |
| QVQRVESGGGLVQAGGSLGLSCAATGSTFTVYAMGWYRQATGTERELVASITFTGGSTYYADSVKGRFTISRDNAKNTVYLQMISLKPEVTEVYYCAAYGWRVHDRWFFERDYWGQGTQVTVSS | high polyreactivity |
| QVQRVESGGGLVQAGGSLRLSCAAAGLTFYGYAMGWYRQAPGKERELVAAITRSGGSTYYADSVKGRFTISRDNAKNTVYLQMNSLKPEDTAVYYCAAEEEYLYQSNRLHPYDYWGQGTQVTVSS | low polyreactivity |
| QVQRVESGGGLVQAGGSLRLSCAASGANFSRYAMGWYRPAPGKERELVAAITSGGSTNYADSVKGRFTISRDNAKNTVYLQMTSLKPEDTAVYYCNKRYVVYPGNYWRYDYWGQGTQVTVSS | high polyreactivity |
| QVQRVESGGGLVQAGGSLRLSCAASGFIFKDNAMGWYRQARGKERELVAVISGTGGRTNSADSVKGRFTISRDNAKNTVYLQMNSLKPEDTAVYYCAAEGYYTSTYDLYDYYYWGQGTQVTVSS | low polyreactivity |
| QVQRVESGGGLVQAGGSLRLSCAASGFIFRRYAMGWYRQAPGKERELVASISSGGNTNYADSVKGRFTISRDNAKNTVYLQMNSLKPEDTAVYYCNDEYRWIAYGYWGQGTQVTVSS | high polyreactivity |

— the nanobody polyreactivity screen of Harvey et al. (2022)
